Assay results from paper PMC6193743, “Phosphoglucomutase 1 inhibits hepatocellular carcinoma progression by regulating glucose trafficking”.

Tests used:
HIS-CNBP [1] = molecular target: T1, HIS-CNBP (Homo sapiens, UniProt P62633 1-177); experiment: EMSA; Chemiluminescent EMSA Kit (Thermo) binding buffer, room temperature, 20 min, 5% polyacrylamide gel; salt and pH not stated; details: protein: recombinant; tags: His (pET-28a); potential G4
HIS-CNBP [2] = molecular target: T1, HIS-CNBP; experiment: competition; unlabeled G20 competes with biotin-G20; Chemiluminescent EMSA Kit (Thermo) binding buffer, room temperature, 20 min, 5% polyacrylamide gel; salt and pH not stated; details: protein: recombinant; tags: His (pET-28a); potential G4

T1 sequence (P62633 whole entry): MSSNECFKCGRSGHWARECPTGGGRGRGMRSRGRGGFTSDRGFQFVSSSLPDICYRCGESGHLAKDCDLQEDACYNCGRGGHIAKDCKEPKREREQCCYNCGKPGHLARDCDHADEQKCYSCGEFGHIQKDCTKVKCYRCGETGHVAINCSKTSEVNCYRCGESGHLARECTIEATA

GGGCTGGCGCGGAGGGAGGG (ssDNA) [Biotin-G20]: binds (HIS-CNBP [1]).

GGGCTGGCGCGGAGGGAGGG (ssDNA) [G20 unlabeled]: binds (HIS-CNBP [2]).
